Measurements published in patent US20250376511A1 (Sanofi, published 2025).
Residue numbers refer to the chain shown, from its start. Read-outs that look alike come from different tables or passages of the source.

T1: Human active C1s (Complement Technology) (human, UniProt P09871 16-688)
T1 sequence: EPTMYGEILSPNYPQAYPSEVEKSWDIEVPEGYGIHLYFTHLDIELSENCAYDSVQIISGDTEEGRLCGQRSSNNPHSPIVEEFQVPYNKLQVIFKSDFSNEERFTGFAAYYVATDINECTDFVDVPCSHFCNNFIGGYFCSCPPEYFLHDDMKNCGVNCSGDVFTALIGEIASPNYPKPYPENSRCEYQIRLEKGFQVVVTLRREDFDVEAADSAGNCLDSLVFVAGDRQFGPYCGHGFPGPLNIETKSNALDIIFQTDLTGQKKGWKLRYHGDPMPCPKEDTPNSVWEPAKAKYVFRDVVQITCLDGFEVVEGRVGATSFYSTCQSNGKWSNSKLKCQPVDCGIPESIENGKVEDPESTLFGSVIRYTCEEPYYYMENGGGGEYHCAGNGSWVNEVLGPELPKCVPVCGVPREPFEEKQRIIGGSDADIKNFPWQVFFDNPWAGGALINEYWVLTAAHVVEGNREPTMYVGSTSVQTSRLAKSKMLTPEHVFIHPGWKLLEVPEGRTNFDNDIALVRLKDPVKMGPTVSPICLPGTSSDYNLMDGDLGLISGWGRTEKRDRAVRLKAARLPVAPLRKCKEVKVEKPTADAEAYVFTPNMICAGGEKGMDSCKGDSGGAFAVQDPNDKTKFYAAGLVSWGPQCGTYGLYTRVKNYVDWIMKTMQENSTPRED

B1: SAR445088 (antibody, V domains shown)
VH: QVQLVQSGAEVKKPGASVKLSCTASGFNIKDDYIHWVKQAPGQGLEWIGRIDPADGHTKYAPKFQVKVTITADTSTSTAYLELSSLRSEDTAVYYCARYGYGREVFDYWGQGTTVTVSS
VL: DIVLTQSPDSLAVSLGERATISCKASQSVDYDGDSYMNWYQQKPGQPPKILIYDASNLESGIPARFSGSGSGTDFTLTISSLEPEDFAIYYCQQSNEDPWTFGGGTKVEIK
modifications: sulfated tyrosine (Y36) on the light chain
notes: Bivalent monospecific anti-aC1s antibody; also called BIVV020; the wild-type antibody
B2: aC1s_088 IgG1-dK (antibody, V domains shown)
VH: B1 VH
VL: B1 VL
B3: aC1s_D32E IgG1-dK (antibody, V domains shown)
VH: B1 VH
VL: B1 VL with D32E
modifications: Y36 sulfation: Yes
B4: aC1s_088 × 531v25 IgG1-NNAS/dK (bispecific antibody, V domains shown)
VH 1: B1 VH with Q39E
VL 1: B1 VL with Q42K
VH 2: QVQLVQSGAEVKKPGASVKVSCKASGYTFTRYYLNWVRKAPGQGLEWIGMIDPSVSETHYAQKFQGRATLTVDKSTSTAYMELSSLRSEDTAVYYCSQIRLPYYYAMDSWGQGTTVTVSS
VL 2: DIQMTQSPSSLSASVGDRVTITCRASQDISSFLNWYQEKPGKAPKLLIYYTSRLQSGVPSRFSGSGSGTDYTLTISSLQPEDFATYYCQQGNTLPRTFGGGTKVEIK
notes: IgG1-NNAS Fc, dK, with charge pairing mutations; The starred variable domains are used, as for m5
B5: aC1s_088 × 531v25.v6 IgG1-NNAS/dK (bispecific antibody, V domains shown)
VH 1: B1 VH with Q39E
VL 1: B1 VL with Q42K
VH 2: B4 VH 2
VL 2: B4 VL 2 with S30E
notes: as for B4
B6: aC1s_D32S IgG1-dK (antibody, V domains shown)
VH: B1 VH
VL: B1 VL with D32S
notes: Bivalent monospecific human IgG1

Assays:
[1] = target: T1, Human active C1s (Complement Technology); experiment: cell-based or functional assay
[2] = target: T1, Human active C1s (Complement Technology); experiment: cell-based or functional assay; remark: listed apart in the source
[3] = target: T1, Human active C1s (Complement Technology); experiment: cell-based or functional assay; remark: listed apart in the source
[4] = target: T1, Human active C1s (Complement Technology); experiment: SPRi Carterra LSA, antibody captured on protein A/G, human active C1s as analyte, 25 C, 1:1 fit
Protocol: C1s binding using surface plasmon resonance (SPRi): Analysis of active C1s binding was performed on a Carterra LSA SPRi instrument at 25° C. Protein A/G (Sigma) diluted in 25 mM MES pH 6.0, 0.05% Tween-20 running buffer was covalently immobilized to an HC200M sensor chip using amine coupling. Antibodies were diluted to 0.2 μg/mL in HBS-EP+ buffer and printed in duplicate to the protein A/G surface in the capture 96-array format for 5 min followed by a 1 min baseline in buffer. Human active C1s (Complement Technology) was serially diluted […] from 1 μM to 0.781 nM in running buffer and injected over the captured antibodies for 5 min with a 5 min dissociation time. The surface was regenerated with 10 mM glycine pH 1.5 with two 30 sec injections. Sensorgrams were processed with the Carterra® K.I.T. Inspection Tool and fit to a 1:1 binding model to obtain kinetic constants.
Three variants were selected as viable engineered alternatives to the wild-type anti-aC1s sequence: D32E, D32S, and D32Y. The three variants were expressed as bivalent monospecific anti-aC1s antibodies with human IgG1 and their affinity for aC1s tested by surface plasmon resonance (Table 5).

[5] = target: T1, Human active C1s (Complement Technology); experiment: cell-based or functional assay; remark: listed apart in the source
[6] = target: T1, Human active C1s (Complement Technology); experiment: SPR Biacore T200, antibody captured on anti-human Fc, human active C1s as analyte, 1:1 fit
Protocol: (§1) TfR and C1s binding using surface plasmon resonance (SPR): Analysis of antibody binding to TfR was performed on a Biacore™ T200 instrument using anti-His capture at 25° C. Anti-His (Qiagen) was buffer exchanged into PBS pH 7.2, diluted to 25 μg/mL in 10 mM sodium acetate pH 4.0 and directly immobilized to a series S CM5 chip to a surface density of ˜10,000 RU using the amine coupling kit provided by Cytiva. His-tagged recombinant human TfR (produced in-house) was diluted in HBS-EP+ pH 7.4 running buffer (10 mM HEPES pH 7.4, 150 mM NaCl, 3 mM EDTA, 0.05% surfactant P20) and injected for 5 sec at 20 μL/min flowrate to obtain capture level of 20 RU. Antibodies were serially diluted 2-fold from 90 to 5.625 nM in running buffer and injected over the captured TfR for 3 min followed by 9 min dissociation in buffer at 30 μL/min. Each cycle was regenerated with 10 mM glycine pH 1.5. To measure C1s binding, anti-human Fc (Jackson) was directly immobilized to a CM5 chip using amine chemistry. Antibodies were diluted to 2.5 μg/mL in HBS-EP+ pH 7.4 and captured to the chip for 15 sec at 20 μL/min flowrate. Human active C1s (Complement Technology) was serially diluted 2-fold from 20 to 0.625 nM in running buffer and injected over the captured antibodies for 180 sec at 50 μL/min followed by 9 min dissociation in buffer. The bound complex was removed from the chip each cycle with 40 mM HCl and 0.85% phosphoric acid. Sensorgrams were processed using the Biacore™ Insight software and fit to a 1:1 binding model to obtain kinetic constants.
(§2) The six bispecific anti-aC1s/anti-TfR antibodies were first tested for their affinity for both TfR and aC1s via surface plasmon resonance (SPR) (Table 2).

[7] = target: T2, His-tagged recombinant human TfR (produced in-house) (human, UniProt P02786 89-760); experiment: SPR Biacore T200, His-tagged human TfR captured on anti-His, antibody as analyte, 25 C, 1:1 fit
T2 construct: also called hTfR; transferrin receptor 1
Protocol: as §1, §2

T2 sequence (P02786 89-760 limits assumed): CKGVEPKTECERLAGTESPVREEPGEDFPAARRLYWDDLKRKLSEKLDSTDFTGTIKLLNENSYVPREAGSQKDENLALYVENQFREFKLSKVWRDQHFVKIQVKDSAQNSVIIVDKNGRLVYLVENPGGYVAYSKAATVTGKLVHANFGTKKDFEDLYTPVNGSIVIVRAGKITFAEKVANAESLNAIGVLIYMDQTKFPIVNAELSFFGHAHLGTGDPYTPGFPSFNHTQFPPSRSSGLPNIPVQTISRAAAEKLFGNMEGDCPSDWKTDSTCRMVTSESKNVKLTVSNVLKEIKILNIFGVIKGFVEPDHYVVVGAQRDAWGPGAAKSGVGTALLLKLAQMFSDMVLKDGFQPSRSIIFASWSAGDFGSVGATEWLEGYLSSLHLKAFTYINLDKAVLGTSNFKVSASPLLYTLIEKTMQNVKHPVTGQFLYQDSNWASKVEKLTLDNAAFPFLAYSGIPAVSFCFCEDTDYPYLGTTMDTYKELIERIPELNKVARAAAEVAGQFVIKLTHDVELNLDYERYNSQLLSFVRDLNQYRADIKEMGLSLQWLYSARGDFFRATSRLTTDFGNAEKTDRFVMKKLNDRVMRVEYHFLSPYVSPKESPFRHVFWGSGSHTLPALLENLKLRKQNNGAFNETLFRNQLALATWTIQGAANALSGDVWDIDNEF

Row | Binder | IC50, Wieslab Complement Pathway Assay (classical pathway, 1% NHS) [1] [µg/mL] | IC50, Wieslab Complement Pathway Assay (classical pathway, 1% NHS) [2] [µg/mL] | IC50, Wieslab Complement Pathway Assay (batch 1) [3] [µg/mL] | IC50, Wieslab Complement Pathway Assay (batch 2) [3] [µg/mL] | Kd [4] [nM] | koff [4] [s⁻¹] | kon [4] [M⁻¹ s⁻¹] | IC50, C3d deposition on neurons in iPSC tricultures with serum [5] [µg/mL] | Kd [6] [nM] | koff [6] [s⁻¹] | kon [6] [M⁻¹ s⁻¹] | Kd [7] [nM] | koff [7] [s⁻¹] | kon [7] [M⁻¹ s⁻¹]
1 | B1 | 0.77 | 1.07 | 0.45 | 0.63 | 2.5 | 0.0033 | 1.3e+06 |  |  |  |  |  |  | 
2 | B2 |  | 0.84 |  |  |  |  |  |  |  |  |  |  |  | 
3 | B3 |  | 1.36 |  |  | 2.5 | 0.0032 | 1.3e+06 |  |  |  |  |  |  | 
4 | B4 | 2.02 |  |  |  |  |  |  | 29.7 | 0.68 | 0.00285 | 4.22e+06 | 24.6 | 0.0049 | 199000
5 | B5 | 1.78 |  |  |  |  |  |  | 12.8 | 0.69 | 0.00272 | 3.96e+06 | 20.3 | 0.00332 | 164000
6 | B6 |  | 10.7 |  |  | 7.3 | 0.0065 | 890000 |  |  |  |  |  |  | 
